Several values for one entry are separate records, joined by “and”; a condition that tells them apart may be missing. Equal entries are not always repeated.
Experiments:
[1] = biological target: Aβ_(C24C29), mutant Aβ42 peptide with an intramolecular disulfide bond; experiment: SDS-PAGE
[2] = biological target: Aβ_(C18C33), mutant Aβ42 peptide containing an intramolecular disulfide bond; experiment: SDS-PAGE
[3] = biological target: Aβ_(C18C33), mutant Aβ42 peptide containing an intramolecular disulfide bond; experiment: SDS-PAGE; remark: listed apart in the source
[4] = biological target: Aβ_(C18C33), mutant Aβ42 peptide containing an intramolecular disulfide bond; experiment: native MS
[5] = biological target: Aβ_(C18C33), mutant Aβ42 peptide containing an intramolecular disulfide bond; experiment: native MS; remark: listed apart in the source
[6] = biological target: Aβ_(C18C33), mutant Aβ42 peptide containing an intramolecular disulfide bond; experiment: SEC-MS
[7] = biological target: Aβ_(C18C33), mutant Aβ42 peptide containing an intramolecular disulfide bond; experiment: native MS; remark: listed apart in the source

Row | Substance | stoichiometry N [1] | stoichiometry N [2] | stoichiometry N [3] | stoichiometry N [4] | stoichiometry N [5] | stoichiometry N [6] | stoichiometry N [7]
1 | Aβ_(C24C29), mutant Aβ42 peptide with an intramolecular disulfide bond | 3 and 4 |  |  |  |  |  | 
2 | Aβ_(C18C33), mutant Aβ42 peptide containing an intramolecular disulfide bond |  | 2 | 2 | 4 | 4 | 2 | 2 and 4
